Results taken from US11629367.

Biological target: Mouse IL-11 receptor alpha (Cat. No. MBS553276, MyBioSource, Inc.) (mouse) (UniProt Q64385)
Experiment: cell-based or functional assay

Chain of UniProt Q64385 (Q64385 24-372): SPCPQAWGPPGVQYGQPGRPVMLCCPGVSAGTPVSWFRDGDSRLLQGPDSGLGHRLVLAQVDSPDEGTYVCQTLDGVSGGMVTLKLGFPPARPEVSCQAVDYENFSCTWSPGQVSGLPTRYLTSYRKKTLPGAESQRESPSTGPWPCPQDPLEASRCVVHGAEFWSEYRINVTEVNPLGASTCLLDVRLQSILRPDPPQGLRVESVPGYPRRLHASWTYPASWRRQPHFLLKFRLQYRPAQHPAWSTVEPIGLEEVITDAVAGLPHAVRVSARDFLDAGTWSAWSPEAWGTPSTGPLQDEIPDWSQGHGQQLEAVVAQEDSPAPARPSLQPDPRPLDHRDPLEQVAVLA

Substance	EC50, 7TD1 cell proliferation assay (MTS, absorbance at 490 nM) [ng/mL]
Reference standard of rhIL-11, derived from yeast (Hangzhou Jiuyuan Gene Engineering Company) (from UniProt P20809 23-199) (ligand)	1.1
recombinant human IL-11 (rhIL-11) expressed in Pichia pastoris and purified by the described method (from UniProt P20809 22-199) (ligand)	2.2
